Patent US20060183700A1, “Cgrp binding nucleic acids” (NOXXON Pharma AG, published 2006)
Residue numbers refer to the chain shown, from its start. Like-named read-outs stand apart in the source and are kept apart here. Where no end group is shown, it is not given here.

Columns and labels:
[1] = target: CGRP receptor on SK-N-MC cells; test: cell-based or functional assay
[2] = target: T1, D-CGRP (biotinylated, all-D alpha-calcitonin gene-related peptide) (Rattus norvegicus) (UniProt P01256); settings: 2'-F pyrimidines
T1 sequence: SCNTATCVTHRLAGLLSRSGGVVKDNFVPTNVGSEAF

[3] = target: T1, D-CGRP (biotinylated, all-D alpha-calcitonin gene-related peptide) (Rattus norvegicus); test: SPR; settings: 2'-F pyrimidines; clone shortened by two nucleotides; Biacore and ITC; higher by factor two at 37 C
[4] = target: T1, D-CGRP (biotinylated, all-D alpha-calcitonin gene-related peptide) (Rattus norvegicus); test: pulldown; settings: 2'-F pyrimidines, bead assay, 37 C, unit uM, probably nM
[5] = target: T2, calcitonin receptor on SK-N-MC cells (human) (UniProt P30988); test: cell-based or functional assay
T2 sequence (looked up): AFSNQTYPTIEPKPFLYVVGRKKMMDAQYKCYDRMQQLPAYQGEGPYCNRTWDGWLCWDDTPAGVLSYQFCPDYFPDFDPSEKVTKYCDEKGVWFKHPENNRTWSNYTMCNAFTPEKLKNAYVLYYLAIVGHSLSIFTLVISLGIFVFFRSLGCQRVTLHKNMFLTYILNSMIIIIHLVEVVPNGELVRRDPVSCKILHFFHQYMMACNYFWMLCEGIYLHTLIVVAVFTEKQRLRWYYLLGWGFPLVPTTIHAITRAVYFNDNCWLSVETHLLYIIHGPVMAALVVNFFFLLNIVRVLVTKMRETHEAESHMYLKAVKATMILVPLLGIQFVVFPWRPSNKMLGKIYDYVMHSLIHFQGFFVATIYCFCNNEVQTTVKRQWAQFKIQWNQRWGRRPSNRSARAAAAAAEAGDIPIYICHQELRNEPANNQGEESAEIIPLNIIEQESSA

[6] = target: T3, alpha-CGRP (L) (Homo sapiens) (UniProt P06881); test: ITC; settings: L-RNA; 37 C, activity 80%
T3 sequence: T1 sequence with S1A, N3D, D25N, E35K

[7] = target: CGRP receptor on SK-N-MC cells; test: cell-based or functional assay; remark: listed apart in the source
[8] = target: calcitonin receptor-like receptor (CRLR) on SK-N-MC cells (human) (UniProt Q16602); test: cell-based or functional assay
[9] = target: T2, calcitonin receptor on SK-N-MC cells (human); test: cell-based or functional assay; remark: listed apart in the source
[10] = target: T4, CGRP (biotinylated) (Rattus norvegicus, UniProt P01256 P01256:83-119); test: SPR; KD in narrow band around G12; settings: protein: synthetic; tags: biotin; synthetic peptide, Jerini
T4 chain: T1 sequence

calcitonin receptor-like receptor (CRLR) on SK-N-MC cells (human), sequence (Q16602 23-461): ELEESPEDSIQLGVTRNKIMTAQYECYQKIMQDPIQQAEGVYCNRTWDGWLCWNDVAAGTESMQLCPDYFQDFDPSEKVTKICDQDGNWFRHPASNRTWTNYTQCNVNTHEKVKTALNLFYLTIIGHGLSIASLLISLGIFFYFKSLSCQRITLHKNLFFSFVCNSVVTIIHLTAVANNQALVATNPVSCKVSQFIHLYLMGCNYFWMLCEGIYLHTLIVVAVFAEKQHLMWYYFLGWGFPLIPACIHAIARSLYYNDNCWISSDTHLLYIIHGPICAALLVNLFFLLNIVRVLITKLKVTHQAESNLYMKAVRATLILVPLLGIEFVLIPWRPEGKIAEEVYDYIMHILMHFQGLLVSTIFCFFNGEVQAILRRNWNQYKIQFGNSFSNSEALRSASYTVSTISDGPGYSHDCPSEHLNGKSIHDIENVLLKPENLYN

Molecule: human α-CGRP (from UniProt P06881 83-119) (peptide)
- EC50, intracellular cAMP in SK-N-MC cells [1]: 1 µM

Molecule: GGCUCAGCCUUCACUGCAGUGACGCACGUAUGAUAGUUUCCAUUUUGGACUCCUGGGCC [732_029]
- Kd [2]: 30000 nM

Molecule: CGCUCAGCCUUCACUGCAGUGACGCACGUAUGAUAGUUUCCAUUUUGGACUCCUGGGCG [732_096]
- Kd [2]: 30000 nM

Molecule: GGAGCUCAGCCUUCACUGCAGUGACGCACGUAUGAUAGUUUCCAUUUUGGACUCCUGGGCACCACGGUCGGAUCCAC [clone 732]
- Kd [3]: 10000 nM
- Kd ([2]; 666 with G20-A21 excised (in analogy to clone 732)): 20000 nM
- Kd [4]: 23 µM

Molecule: GGCAGCCUUCCUGCAGGACGCACGUAUGAUAGUUUGCUUUGCACUCCUGCC [732_104]
- Kd [2]: 40000 nM

Molecule: human amylin (from UniProt P10997 34-70) (peptide)
- EC50, cAMP production in SK-N-MC cells [5]: 3 µM

Molecule: GGCAGCCUUCACUGCAGUGACGCACGUAUGAUAGUUUCCAUUUUGGACUCCUGCC [732_026]
- Kd ([2]; stem shortened to five base pairs, FIG. 7): 30000 nM

Molecule: CGCAGCCUUCACUGCAGUGACGCACGUAUGAUAGUUUCCAUUUUGGACUCCUGCG [732_045]
- Kd [2]: 30000 nM

Molecule: GGCAGCCUUGCUGCAGCACGCACGUAUGAUAGUUUCCUUUGGACUCCUGCC [732_103]
- Kd [2]: 20000 nM

Molecule: GGCAGCCUUCCUGCAGGACGCACGUAUGAUAGUUUCCUUUGGACUCCUGCC [732_100]
- Kd ([2]; 51mer): 75000 nM

Molecule: GGCAGCCUUCACUGCAGUGACGCACGUAUGAUAGUUUCCAAG / CUUGGACUCCUGCC [732_071a+732_071b]
- Kd ([2]; two-strand binder): 100000 nM

Molecule: GGAGCUCAGCCUUCACUGCGAAGUGACGCACGUAUGAUAGUUUCCAUUUUGGACUCCUGGGCACCACGGUCGGAUCCAC [clone 666]
- Kd ([2]; unit uM, probably misprint for nM, method not specified here (Biacore/ITC in Ex. 1)): 10000 nM

Molecule: GGACUGAUGGCGCGGUCCUAUUACGCCGAGAAGGGAGUGGGGGA [L097 (NOX-504-097) spiegelmer]
- Kd [6]: 0.052 µM

Molecule: SCNTATCVTHRLAGLLSRSGGVVKDNFVPTNVGSEAF (peptide, UniProt P01256 83-119, looked up, ends and bridges not checked; cysteine pairing not given here) [rat α-CGRP (calcitonin gene-related peptide I, rat)]
- EC50, intracellular cAMP in SK-N-MC cells [7]: 1 µM
- cAMP formation in SK-N-MC cells, half-maximum activation [7]: 1 nM

Molecule: ACNTATCVTHRLAGLLSRSGGMVKSNFVPTNVGSKAF (peptide, UniProt P10092 82-118, looked up, ends and bridges not checked; cysteine pairing not given here) [human β-CGRP (calcitonin gene-related peptide II)]
- EC50, intracellular cAMP in SK-N-MC cells [7]: 1 µM

Molecule: YRQSMNQGSRSTGCRFGTCTMQKLAHQIYQFTDKDKDGMAPRNKISPQGY (peptide, UniProt P43145 94-143, looked up) [rat adrenomedullin]
- EC50, cAMP production in SK-N-MC cells [8]: 30 µM
- EC50, intracellular cAMP in SK-N-MC cells [8]: 0.03 µM

B1: human adrenomedullin (peptide, UniProt P35318 95-146, looked up)
peptide: YRQSMNNFQGLRSFGCRFGTCTVQKLAHQIYQFTDKDKDNVAPRSKISPQGY
- EC50, cAMP production in SK-N-MC cells [8]: 30 µM
- EC50, intracellular cAMP in SK-N-MC cells [8]: 0.03 µM

Molecule: KCNTATCATQRLANFLVRSSNNLGPVLPPTNVGSNTY (peptide, UniProt P12969 38-74, looked up) [rat amylin]
- EC50, cAMP production in SK-N-MC cells [9]: 1 µM

B2: G12a (ssRNA)
RNA: GGAGCUCAGCCUUCACUGCAUCGAGGCAUCCAAGUUAUAGGAAUAGGGUGGCUUGAAGGGCACCACGGUCGGAUCCAG
- binding result [10]: binds

B3: G12b (ssRNA)
RNA: B2 RNA
- binding result [10]: binds

B4: G12c (ssRNA)
RNA: GGAGCUCAGCCUUCACUGCAUCGAGGCGAUCCAAGUUGAGGAAUGGGGUGGCUUGGAGGGCACCACGGUCGGAUCCAG
- binding result [10]: binds

B5: G12d (ssRNA)
RNA: GGAGCUCAGCCUUCACUGCAUCGAAGGCGAUCCAAGUUGUAAGAAUGGGGGUGGCUUGGAGGGCACCACGGUCGGAUCCAG
- binding result [10]: binds

B6: G12e (ssRNA)
RNA: GGAGCUCAGCCUUCACUGCAUCGAGGCGAUCCAAGUUGUAGGAAUUGGAUGACUUGGAGGGCACCACGGUCGGAUCCAG
- binding result [10]: binds

B7: G12f (ssRNA)
RNA: GGAGCUCAGCCUUCACUGCAUCGAGGGCGAUCCAAGUUGUAGGAAUGGGGUGGCUUGGAGGGCACCACGGUCGGAUCCAG
- binding result [10]: binds

B8: G12g (ssRNA)
RNA: B6 RNA with G25A, U46G, A49G, G51A, A52G
- binding result [10]: binds
